# Tests used:
# Assay in all cases: peptide or protein array; PEPperCHIP microarray of 15 amino acid peptides with 10 amino acid overlap, immobilised; survivin at 1 μg/ml (53.5 nM monomer) in incubation buffer; stained with 6x His Tag Antibody DyLight680; LI-COR Odyssey read-out
# [1] = target: microarray peptides covering EED 128–152 (human)
# [2] = target: microarray peptides covering EZH2 172–211 (human)
# [3] = target: microarray peptides covering JARID2 170–194 (human)
# [4] = target: microarray peptides covering SUZ12 573–597 (human)
# [5] = scale: % of maximum fluorescence intensity units
# Chain of survivin (His-tagged, from pHIS8) (O15392 whole entry): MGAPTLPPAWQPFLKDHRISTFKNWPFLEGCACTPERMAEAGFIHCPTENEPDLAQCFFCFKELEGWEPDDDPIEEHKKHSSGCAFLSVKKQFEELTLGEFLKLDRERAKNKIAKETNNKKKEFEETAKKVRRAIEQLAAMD
substance,measurement,setting,value
"survivin (His-tagged, from pHIS8) (from UniProt O15392 1-142) (natural protein)",Integrated FI (units of the maximum FI per peptide),[1],0.31
same,Average FI (%),[1]; [5],10
same,Integrated FI (units of the maximum FI per peptide),[2],4.28
same,Average FI (%),[2]; [5],71
same,Integrated FI (units of the maximum FI per peptide),[3],3
same,Average FI (%),[3]; [5],100
same,Integrated FI (units of the maximum FI per peptide),[4],0.6
same,Average FI (%),[4]; [5],20

# Reference: publication PMC10391610, “Survivin prevents the polycomb repressor complex 2 from methylating histone 3 lysine 27” (iScience, 2023)
